The text below walks through data of PMC4592070.

The assay addresses ErbB1-mCitrine (UniProt P00533). In words: FRET or BRET; confocal time-domain FLIM-FRET in live COS-7 cells at 37°C; donor ErbB1-mCitrine, acceptor an mCherry-labeled PTP1B chimera; cells starved overnight, recorded 2 min before and 14 min after EGF (100 ng/mL). (In general: Bioluminescence resonance energy transfer reports proximity on the nanometre scale.)

The substance mCherry-PTP1B^D/A-ER (enzyme) registered an average donor fluorescence lifetime (donor-only control 3.02 ns) of 2.89 ns.
To mCherry-PTP1B^D/A-OMM (enzyme) belongs 2.96 ns.
